The source of these data is patent US12692310B2, “ASIC1 channel antagonist antibody” (ShanghaiTech University, priority 2019, dated 2026).

In one series the target is T1, hASIC1b (Homo sapiens, UniProt P78348).
T1 construct: expressed in transfected cells; host or cells: CHO-K1, transient
T1 sequence (P78348 1-562 isoform P78348-3): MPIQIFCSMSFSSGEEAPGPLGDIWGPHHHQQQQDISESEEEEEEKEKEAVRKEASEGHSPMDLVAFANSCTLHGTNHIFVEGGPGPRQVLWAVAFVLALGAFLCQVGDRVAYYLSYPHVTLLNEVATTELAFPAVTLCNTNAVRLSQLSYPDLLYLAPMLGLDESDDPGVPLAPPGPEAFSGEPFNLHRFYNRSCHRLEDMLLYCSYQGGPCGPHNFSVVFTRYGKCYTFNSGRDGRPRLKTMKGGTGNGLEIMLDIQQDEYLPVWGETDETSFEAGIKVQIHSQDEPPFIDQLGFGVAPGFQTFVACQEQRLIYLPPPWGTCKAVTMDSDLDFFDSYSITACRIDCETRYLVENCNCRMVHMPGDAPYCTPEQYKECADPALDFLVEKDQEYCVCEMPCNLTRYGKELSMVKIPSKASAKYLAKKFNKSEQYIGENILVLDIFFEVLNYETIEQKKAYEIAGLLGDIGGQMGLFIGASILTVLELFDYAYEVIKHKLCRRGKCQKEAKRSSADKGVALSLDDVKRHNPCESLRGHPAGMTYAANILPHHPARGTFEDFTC
Description: Subtype selectivity, FACS binding, transfected CHO-K1 cells. Type of series: cell-based. The method, then:
To test the species and subtype selectivity of ASC06-IgG1, vectors encoding human ASIC1b-eYFP fusion, rat ASIC1a-eYFP fusion, mouse ASIC1a-eYFP fusion, hASIC2a-eYFP fusion, hASIC2b-eYFP fusion, and hASIC3a-eYFP fusion were constructed. The CHO-K1 cells were transiently transfected with these plasmids. FACS binding assay and immunocytochemistry (ICC) were carried out to determine if ASC06-IgG1 is able to bind to the cell surface-expressed ASIC homologs and isotypes.
Background: A flow cytometer gives signals particle by particle.

Series [1] is described as follows: pH stability, SEC-HPLC analysis. To be noted: pH 7.4 to 5.0, 6 h at 37° C. Format: physicochemical. On the set-up: dose or concentration left out as unconfirmed. How it is done: The tolerance of ASC06-IgG1 to acidic conditions was tested. A concentrated ASC06-IgG1 solution ([…]) was incubated at different pH values (from 7.4 to 5.0) for 6 h at 37° C. and subjected to SEC-HPLC analysis.
A general note: In gel filtration, larger molecules generally elute earlier.

In series [2] the test system is MCAO-induced ischemic stroke model mice. Description: Middle cerebral artery occlusion (MCAO)-induced ischemic stroke model. Type of series: in vivo, mouse. To be noted: 4 μL i.c.v. 3 h after ischemia; 100 nM PcTx1 or 3.0 μg/μL ASC06-IgG1; 24 h after injection. How it is done: The Middle Cerebral Artery Occlusion (MCAO) Model. Animal care and the experimental protocols were approved by the Animal Ethics Committee of Shanghai Jiao Tong University School of Medicine, Shanghai, China. A transient ischemic stroke in the left brain hemisphere was established in male mice (C57 BL/6, 20-25 g) using middle cerebral artery occlusion (MCAO) for 1 h before reperfusion. Three hours after ischemia, a total of 4 μL of vehicle solution (PBS) in the absence or presence of neuroprotective agents) 100 nM PcTx1 or 3.0 μg/μL endotoxin-free ASC06-IgG1 ([…])) was administered by an intracerebroventricular (i.c.v.) injection on the contralateral side of the brain hemisphere. An irrelevant endotoxin-free antibody (3.0 μg/μL, […]) was used as isotype control. […] Mice were sacrificed 24 h after the i.c.v. injection. […] The infarct area was calculated by subtracting the normal area stained with TTC in the ischemic hemisphere from that of the nonischemic hemisphere. The infarct volume was calculated by summing infarction areas of all sections and multiplying by slice thickness.
To determine if the protective effect of antibody ASC06-IgG1 in vitro could be extended to pathologies in vivo, the middle cerebral artery occlusion (MCAO) model was used to study the antibody's neuroprotective effect. […] The infarct volume of the cortex and striatum were calculated 24 hours after the injection. […]

B1: ASC06-IgG1: ASC06 antibody converted into a full length IgG1 form (antibody, V domains shown)
VH: QVQLQQSGGGLVQPGGSLRLSCAASGFTFSSYAMSWVRQAPGKGLEWVSAISGSGGSTYYADSVKGRFTISRDNSKNTLYLQMNSLRAEDTAVYYCAKDSFYGYSKGDWGQGTLVTVSS
VL: QSALTQPASVSGSPGQSITISCTGTSSDVGAYNYVSWYQQQPGKAPKLMIYGVSNRPSGVSNRFSGSKSGNAASLTISGLQAEDEADYYCSSYTSSSTYVFGTGTKLTVLG
Consider B1, for which the “FACS recognition of hASIC1b” value with hASIC1b is given as “not”. In addition, the “degradation or aggregation by SEC-HPLC” value in series [1] is reported as “no significant degradation or aggregation”. In addition, the “infarct volume (compared with the contralateral brain region)” value in series [2] is “about 23%”.
